Results reported in article PMC8411030.

Target: N-terminal domain of NOEY2 (NOEY2-N), LexA fusion (pGilda/LexA-NOEY2-N) (human) (UniProt O95661)
Test: two-hybrid

UniProt O95661, sequence (O95661 whole entry, the tested form may be a part): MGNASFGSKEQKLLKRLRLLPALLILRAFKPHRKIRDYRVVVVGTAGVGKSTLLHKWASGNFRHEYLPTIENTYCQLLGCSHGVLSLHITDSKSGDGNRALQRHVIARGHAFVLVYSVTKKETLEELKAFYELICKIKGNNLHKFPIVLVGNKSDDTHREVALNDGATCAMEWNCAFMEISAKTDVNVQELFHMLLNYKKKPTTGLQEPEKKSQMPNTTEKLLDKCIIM

Q: With “VEGFR-2, B42 fusion (pJG4-5) (from UniProt P35968 1-1356) (receptor)” as the substance, how does the β-galactosidase activity read?
A: 92.2 unit
